Assays:
[1] = target: M44-modified S NTAA target peptides; assay: encoding assay; P2 M
[2] = target: M44-modified W NTAA target peptides; assay: encoding assay; P2 M;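 further: fraction of recording tags encoded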
[3] = target: M44-modified H NTAA target peptides; assay: encoding assay; P2 M;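 further: fraction of recording tags encoded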
[4] = target: M44-modified G NTAA target peptides (M44-G-P2-peptide); assay: encoding assay; P2 M;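 further: fraction of recording tags encoded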
[5] = target: M44-modified D NTAA target peptides; assay: encoding assay; P2 M;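 further: fraction of recording tags encoded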
[6] = target: M44-modified A NTAA target peptides (M44-A-P2-peptide); assay: encoding assay; P2 M;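 further: fraction of recording tags encoded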
[7] = target: M44-modified G NTAA target peptides (M44-G-P2-peptide); assay: encoding assay; P2 E;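 further: fraction of recording tags encoded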
[8] = target: M44-modified P NTAA target peptides; assay: encoding assay; P2 N;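 further: fraction of recording tags encoded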
[9] = target: M44-modified T NTAA target peptides; assay: encoding assay; P2 N;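 further: fraction of recording tags encoded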
[10] = target: M44-modified G NTAA target peptides (M44-G-P2-peptide); assay: encoding assay; P2 N;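 further: fraction of recording tags encoded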
[11] = target: M44-modified A NTAA target peptides (M44-A-P2-peptide); assay: encoding assay; P2 N;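 further: fraction of recording tags encoded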
[12] = target: M44-modified L NTAA target peptides (M44-L-P2-peptide); assay: Gini coefficient of P2 tolerance from multiplex encoding heatmap
[13] = target: M17-modified D NTAA target peptides; assay: encoding assay; P2 M;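 further: fraction of recording tags encoded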
[14] = target: M17-modified M NTAA target peptides; assay: encoding assay; P2 M;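 further: fraction of recording tags encoded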
[15] = target: M17-modified G NTAA target peptides; assay: encoding assay; P2 M;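 further: fraction of recording tags encoded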
[16] = target: M17-modified I NTAA target peptides; assay: encoding assay; P2 M;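 further: fraction of recording tags encoded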
[17] = target: M17-modified T NTAA target peptides; assay: encoding assay; P2 M;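 further: fraction of recording tags encoded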
[18] = target: M17-modified W NTAA target peptides; assay: encoding assay; P2 M;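 further: fraction of recording tags encoded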
[19] = target: M17-modified N NTAA target peptides; assay: encoding assay; P2 M;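 further: fraction of recording tags encoded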
[20] = target: M17-modified A NTAA target peptides; assay: encoding assay; P2 M;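 further: fraction of recording tags encoded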
[21] = target: M17-modified Q NTAA target peptides; assay: encoding assay; P2 E;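 further: fraction of recording tags encoded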
[22] = target: M17-modified D NTAA target peptides; assay: encoding assay; P2 E;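 further: fraction of recording tags encoded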
[23] = target: M17-modified M NTAA target peptides; assay: encoding assay; P2 E;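 further: fraction of recording tags encoded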
[24] = target: M17-modified P NTAA target peptides; assay: encoding assay; P2 E;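 further: fraction of recording tags encoded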
[25] = target: M17-modified L NTAA target peptides; assay: encoding assay; P2 E;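 further: fraction of recording tags encoded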
[26] = target: M17-modified F NTAA target peptides; assay: encoding assay; P2 E;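 further: fraction of recording tags encoded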
[27] = target: M17-modified V NTAA target peptides; assay: encoding assay; P2 E;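 further: fraction of recording tags encoded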
[28] = target: M17-modified E NTAA target peptides; assay: encoding assay; P2 E;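 further: fraction of recording tags encoded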
[29] = target: M17-modified G NTAA target peptides; assay: encoding assay; P2 E;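 further: fraction of recording tags encoded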
[30] = target: M17-modified I NTAA target peptides; assay: encoding assay; P2 E;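 further: fraction of recording tags encoded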
[31] = target: M17-modified T NTAA target peptides; assay: encoding assay; P2 E;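 further: fraction of recording tags encoded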
[32] = target: M17-modified Y NTAA target peptides (M17-Y-P2-peptide); assay: encoding assay; P2 E;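 further: fraction of recording tags encoded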
[33] = target: M17-modified S NTAA target peptides; assay: encoding assay; P2 E;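 further: fraction of recording tags encoded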
[34] = target: M17-modified H NTAA target peptides; assay: encoding assay; P2 E;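 further: fraction of recording tags encoded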
[35] = target: M17-modified W NTAA target peptides; assay: encoding assay; P2 E;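 further: fraction of recording tags encoded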
[36] = target: M17-modified N NTAA target peptides; assay: encoding assay; P2 E;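 further: fraction of recording tags encoded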
[37] = target: M17-modified A NTAA target peptides; assay: encoding assay; P2 E;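 further: fraction of recording tags encoded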
[38] = target: M17-modified Y NTAA target peptides (M17-Y-P2-peptide); assay: Gini coefficient of P2 tolerance from multiplex encoding heatmap
[39] = target: M17-modified Q NTAA target peptides; assay: encoding assay; P2 N;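 further: fraction of recording tags encoded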
[40] = target: M17-modified D NTAA target peptides; assay: encoding assay; P2 N;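 further: fraction of recording tags encoded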
[41] = target: M17-modified P NTAA target peptides; assay: encoding assay; P2 N;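 further: fraction of recording tags encoded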
[42] = target: M17-modified L NTAA target peptides; assay: encoding assay; P2 N;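 further: fraction of recording tags encoded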
[43] = target: M17-modified F NTAA target peptides; assay: encoding assay; P2 N;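 further: fraction of recording tags encoded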
[44] = target: M17-modified V NTAA target peptides; assay: encoding assay; P2 N;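 further: fraction of recording tags encoded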
[45] = target: M17-modified E NTAA target peptides; assay: encoding assay; P2 N;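 further: fraction of recording tags encoded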
[46] = target: M17-modified G NTAA target peptides; assay: encoding assay; P2 N;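 further: fraction of recording tags encoded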
[47] = target: M17-modified I NTAA target peptides; assay: encoding assay; P2 N;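 further: fraction of recording tags encoded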
[48] = target: M17-modified T NTAA target peptides; assay: encoding assay; P2 N;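 further: fraction of recording tags encoded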
[49] = target: M17-modified Y NTAA target peptides (M17-Y-P2-peptide); assay: encoding assay; P2 N;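 further: fraction of recording tags encoded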
[50] = target: M17-modified H NTAA target peptides; assay: encoding assay; P2 N;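 further: fraction of recording tags encoded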
[51] = target: M17-modified W NTAA target peptides; assay: encoding assay; P2 N;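 further: fraction of recording tags encoded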
[52] = target: M17-modified N NTAA target peptides; assay: encoding assay; P2 N;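 further: fraction of recording tags encoded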
[53] = target: M17-modified A NTAA target peptides; assay: encoding assay; P2 N;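 further: fraction of recording tags encoded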

B1: engineered M44-A binder (SEQ ID NO: 42) (designed binder, not shown: small tags and cut ends; large carriers)
chain: QVSVQPNFQQDKFLGRWFVAGLASNSSWDREKVAALSGAKMVVAPATDGGLNVTRTMLRKNQCETYTGLLQPAGSLGSYSWRSPHPGSTGSESVVETDYDQYALVYGQGSKGPGEDLRAAALWSRTQTPRAELKEKFTAFSKAQGFTEDTIVFLPQTDKCMTEQ
Question: B1 was tested. Which encoding yield [1] did it give?
Answer: 0.04

Question: And the encoding yield [2]?
Answer: 0.01

Question: What about the encoding yield [3] of the same binder?
Answer: 0.01

Question: And the encoding yield [4]?
Answer: 0.04

Question: And the encoding yield [5]?
Answer: 0.02

Question: What about the encoding yield [6] of the same binder?
Answer: 0.1

Question: And the encoding yield [7]?
Answer: 0.01

Question: And the encoding yield [8]?
Answer: 0.02

Question: What about the encoding yield [9] of the same binder?
Answer: 0.02

Question: And the encoding yield [10]?
Answer: 0.03

Question: And the encoding yield [11]?
Answer: 0.1

B2: engineered M44-L binder (SEQ ID NO: 21) (designed binder, not shown: small tags and cut ends; large carriers)
chain: QVSVQPNFQQDKFLGRWFYAGHASNSSWYREKVAALSMAKLVVAPATDGGLNATETFLRKNQCETITSLLQPAGSLGSYSSRSPHGGSTWSTSVVETDYDQYALLYLQGSKGPGEDFRGAILASRTQTPRAELKEKFTAFSKAQGFTEDTIVFLPQTDKCMTEQ
Question: With B2 as the binder, how does the P2 score [12] read?
Answer: 0.408

B3: engineered M44-L binder (SEQ ID NO: 31) (designed binder, not shown: small tags and cut ends; large carriers)
chain: QDSTQNLIPAPPLISVPLQPGFWTERFQGRWFLVGFAGNAVQKERQSRLTMQSLILELQEDNSYNITAINVRGQGCRYIISTLVPSSRPGQFTLGNIHSYPQIQSLDVQVADTDYDQFAMVFLQGTSENKQYFEVALAGRTKGLSDELKERFVSFAKSLGLKDNNIVFSVPTDQCIDN
Question: Which results are given for B3?
Answer: encoding yield [1]: 0.01; encoding yield [2]: 0.03; encoding yield [3]: 0.01; encoding yield [4]: 0.01; encoding yield [5]: 0.01; encoding yield [6]: 0.02; encoding yield [7]: 0.01; P2 score [12]: 0.331; encoding yield [8]: 0.01; encoding yield [9]: 0.01; encoding yield [10]: 0.02; encoding yield [11]: 0.02

B4: engineered M17-Y binder (SEQ ID NO: 61) (designed binder, not shown: small tags and cut ends; large carriers)
chain: TVPDRSEIAGKWYVVALASNTEFYLREKDWVKSAMARISFLGEDELKVSSAVPSPNGCYKVERTWKKTSDDGEVYNSRAAKLKVEVLDTDYKSYAVIYATRVKDGRTDHQMILYSRSPEVSPAATAIFRKLAGERNYTDEMVAMLPRQEECTVDEV
Question: Which results are given for B4?
Answer: encoding yield [13]: 0.02; encoding yield [14]: 0.01; encoding yield [15]: 0.01; encoding yield [16]: 0.06; encoding yield [17]: 0.04; encoding yield [18]: 0.01; encoding yield [19]: 0.02; encoding yield [20]: 0.01; encoding yield [21]: 0.02; encoding yield [22]: 0.02; encoding yield [23]: 0.01; encoding yield [24]: 0.02; encoding yield [25]: 0.02; encoding yield [26]: 0.01; encoding yield [27]: 0.02; encoding yield [28]: 0.02; encoding yield [29]: 0.01; encoding yield [30]: 0.01; encoding yield [31]: 0.01; encoding yield [32]: 0.07; encoding yield [33]: 0.02; encoding yield [34]: 0.02; encoding yield [35]: 0.03; encoding yield [36]: 0.01; encoding yield [37]: 0.02; P2 score [38]: 0.225; encoding yield [39]: 0.02; encoding yield [40]: 0.02; encoding yield [41]: 0.01; encoding yield [42]: 0.02; encoding yield [43]: 0.02; encoding yield [44]: 0.02; encoding yield [45]: 0.02; encoding yield [46]: 0.03; encoding yield [47]: 0.02; encoding yield [48]: 0.01; encoding yield [49]: 0.06; encoding yield [50]: 0.03; encoding yield [51]: 0.02; encoding yield [52]: 0.03; encoding yield [53]: 0.02

B5: upgraded binder after additional maturation round (SEQ ID NO: 62) (designed binder, not shown: small tags and cut ends; large carriers)
chain: TVPDRSEIAGKWYVVALASNTEFYLRGKDRVKSAMVRISFQGEDELKVSSAVPSPNGCYKVERTWKKTSDDGEVYNSRAAKLKVEVLDTDYKSYAVIYATRVKDRRTDHQMILYSRSPDVSPAATAIFRKLAGERNYTDEMVAMLPRQEECTVDEV
Question: How did the encoding yield [13] turn out when B5 was run?
Answer: 0.02

Question: And the encoding yield [14]?
Answer: 0.02

Question: What about the encoding yield [15] of the same binder?
Answer: 0.02

Question: What about the encoding yield [16] of the same binder?
Answer: 0.1

Question: And the encoding yield [17]?
Answer: 0.05

Question: And the encoding yield [18]?
Answer: 0.03

Question: What about the encoding yield [19] of the same binder?
Answer: 0.02

Question: And the encoding yield [20]?
Answer: 0.02

Question: And the encoding yield [21]?
Answer: 0.03

Question: What about the encoding yield [22] of the same binder?
Answer: 0.02

Question: What about the encoding yield [23] of the same binder?
Answer: 0.01

Question: What about the encoding yield [24] of the same binder?
Answer: 0.04

Question: What about the encoding yield [25] of the same binder?
Answer: 0.02

Question: What about the encoding yield [26] of the same binder?
Answer: 0.02

Question: And the encoding yield [27]?
Answer: 0.03

Question: And the encoding yield [28]?
Answer: 0.03

Question: What about the encoding yield [29] of the same binder?
Answer: 0.02

Question: What about the encoding yield [30] of the same binder?
Answer: 0.02

Question: What about the encoding yield [31] of the same binder?
Answer: 0.02

Question: And the encoding yield [32]?
Answer: 0.16

Question: What about the encoding yield [33] of the same binder?
Answer: 0.03

Question: What about the encoding yield [34] of the same binder?
Answer: 0.02

Question: And the encoding yield [35]?
Answer: 0.06

Question: What about the encoding yield [36] of the same binder?
Answer: 0.02

Question: What about the encoding yield [37] of the same binder?
Answer: 0.03

Question: And the P2 score [38]?
Answer: 0.128

Question: And the encoding yield [39]?
Answer: 0.02

Question: And the encoding yield [40]?
Answer: 0.02

Question: What about the encoding yield [41] of the same binder?
Answer: 0.02

Question: And the encoding yield [42]?
Answer: 0.03

Question: What about the encoding yield [43] of the same binder?
Answer: 0.01

Question: What about the encoding yield [44] of the same binder?
Answer: 0.03

Question: What about the encoding yield [45] of the same binder?
Answer: 0.03

Question: And the encoding yield [46]?
Answer: 0.03

Question: And the encoding yield [47]?
Answer: 0.03

Question: What about the encoding yield [48] of the same binder?
Answer: 0.01

Question: What about the encoding yield [49] of the same binder?
Answer: 0.15

Question: And the encoding yield [50]?
Answer: 0.03

Question: What about the encoding yield [51] of the same binder?
Answer: 0.02

Question: What about the encoding yield [52] of the same binder?
Answer: 0.04

Question: And the encoding yield [53]?
Answer: 0.02
